# B1: WDFY1 (parent)
# chain: LLIPKEDGVITASEDRTIRVWLKR
# B2: SLC2A12 (parent)
# chain: LTLVFFVQITGQPNILFYASTVLK
# Variants of: B1
# Assay: protein stability index of a GFP-peptide fusion (GPS, HEK-293T) (PSI 1-6); higher = more stable
# Details: c terminus: a fixed tail appended
# 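Also: lentivirally expressed fusions sorted by FACS into six bins by GFP to DsRed ratio, PSI derived from sequencing read proportions per bin multiplied by bin number.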
row,Variant,protein stability index
1,LLIPKEDGVITASEDRTIRVWLMR [K23M],1.76
2,LLIPKEDGVITASEDRTIRVWLGR [K23G],1.83
3,LLIPKEDGVITASEDRTIRVFLKR [W21F],3.61
4,LLIPKEDGVITASEDRTIRVMLKR [W21M],2.06
5,LLIPKEDGVITASEDRTIRVNLKR [W21N],3.33
6,LLIPKEDGVITASEDRTIRVQLKR [W21Q],4.25
7,LLIPKEDGVITASEDRTIRVDLKR [W21D],3.87
8,LLIPKEDGVITASEDRTIRVVLKR [W21V],3.07
9,LLIPKEDGVITASEDRTIRVRLKR [W21R],2.77
10,LLIPKEDGVITASEDRTIRVSLKR [W21S],2.8
11,LLIPKEDGVITASEDRTIRVLLKR [W21L],2.78
12,LLIPKEDGVITASEDRTIRVTLKR [W21T],2.46
13,LLIPKEDGVITASEDRTIRVALKR [W21A],3.07
14,LLIPKEDGVITASEDRTIRVHLKR [W21H],3.17
15,LLIPKEDGVITASEDRTIRVCLKR [W21C],3.44
16,LLIPKEDGVITASEDRTIRVELKR [W21E],3.37
17,LLIPKEDGVITASEDRTIRVILKR [W21I],3.04
18,LLIPKEDGVITASEDREIRVWLKR [T17E],1.81
19,LLIPKEDGVITASEDRCIRVWLKR [T17C],2.1
20,LLIPKEDGVITASEDRWIRVWLKR [T17W],2.16
21,LLIPKEDGVITASEDRDIRVWLKR [T17D],1.94
22,LLIPKEDGVITASEDRNIRVWLKR [T17N],2.77
23,LLIPKEDGVITASEDRPIRVWLKR [T17P],2.51
24,LLIPKEDGVITASEDRHIRVWLKR [T17H],3.16
25,LLIPKEDGVITASEDRRIRVWLKR [T17R],2.29

row,Variant,protein stability index
1,LLIPKEDGVITASEDRIIRVWLKR [T17I],1.61
2,LLIPKEDGVITASEDRAIRVWLKR [T17A],2.74
3,LLIPKEDGVITASEDRYIRVWLKR [T17Y],1.33
4,LLIPKEDGVITASEDRFIRVWLKR [T17F],2.12
5,LLIPKEDGVITASEDRVIRVWLKR [T17V],1.71
6,LLIPKEDGVITASEDRLIRVWLKR [T17L],1.82
7,LLIPKEDGVITASEDRGIRVWLKR [T17G],1.39
8,LLIPKEDGVITASEDRMIRVWLKR [T17M],1.73
9,LLIPKEDGVITASEDRQIRVWLKR [T17Q],2.02
10,LLIPKEDGVITASEDRSIRVWLKR [T17S],1.8
11,LLIPKEDGVITASEDRTIRYWLKR [V20Y],1.87
12,LLIPKEDGVITASEDRTIRHWLKR [V20H],2.1
13,LLIPKEDGVITASEDRTIRLWLKR [V20L],2.29
14,LLIPKEDGVITASEDRTIRIWLKR [V20I],2.64
15,LLIPKEDGVITASEDRTIRMWLKR [V20M],1.66
16,LLIPKEDGVITASEDRTIRPWLKR [V20P],2.44
17,LLIPKEDGVITASEDRTIRCWLKR [V20C],2.39
18,LLIPKEDGVITASEDRTIRSWLKR [V20S],2.15
19,LLIPKEDGVITASEDRTIRWWLKR [V20W],1.72
20,LLIPKEDGVITASEDRTIREWLKR [V20E],1.73
21,LLIPKEDGVITASEDRTIRRWLKR [V20R],1.64
22,LLIPKEDGVITASEDRTIRTWLKR [V20T],2.95
23,LLIPKEDGVITASEDRTIRDWLKR [V20D],2.52
24,LLIPKEDGVITASEDRTIRKWLKR [V20K],2.41

# Variants of: B2
# Assay: as above
# Details: c terminus: a fixed tail appended
row,Variant,protein stability index
1,LTHVFFVQITGQPNILFYASTVLK [L3H],2.75
2,LTEVFFVQITGQPNILFYASTVLK [L3E],4.85
3,LTPVFFVQITGQPNILFYASTVLK [L3P],3.17
4,LTIVFFVQITGQPNILFYASTVLK [L3I],3.43
5,LTAVFFVQITGQPNILFYASTVLK [L3A],3.64
6,LTDVFFVQITGQPNILFYASTVLK [L3D],2.9
7,LTMVFFVQITGQPNILFYASTVLK [L3M],3.15
8,LTQVFFVQITGQPNILFYASTVLK [L3Q],3.25
9,LTNVFFVQITGQPNILFYASTVLK [L3N],2.42
10,LTSVFFVQITGQPNILFYASTVLK [L3S],3.34
11,LTRVFFVQITGQPNILFYASTVLK [L3R],2.29
12,LTGVFFVQITGQPNILFYASTVLK [L3G],2.17
13,PTLVFFVQITGQPNILFYASTVLK [L1P],2.54
14,VTLVFFVQITGQPNILFYASTVLK [L1V],2.75
15,NTLVFFVQITGQPNILFYASTVLK [L1N],1.69
16,CTLVFFVQITGQPNILFYASTVLK [L1C],2.29
17,TTLVFFVQITGQPNILFYASTVLK [L1T],3.79
18,KTLVFFVQITGQPNILFYASTVLK [L1K],2.96
19,YTLVFFVQITGQPNILFYASTVLK [L1Y],2.85
20,RTLVFFVQITGQPNILFYASTVLK [L1R],1.8
21,ETLVFFVQITGQPNILFYASTVLK [L1E],2.27
22,DTLVFFVQITGQPNILFYASTVLK [L1D],2.23
23,GTLVFFVQITGQPNILFYASTVLK [L1G],4.08

row,Variant,protein stability index
1,STLVFFVQITGQPNILFYASTVLK [L1S],3.18
2,FTLVFFVQITGQPNILFYASTVLK [L1F],4.63
3,ITLVFFVQITGQPNILFYASTVLK [L1I],2.33
4,WTLVFFVQITGQPNILFYASTVLK [L1W],2.65
5,ATLVFFVQITGQPNILFYASTVLK [L1A],2.8
6,MTLVFFVQITGQPNILFYASTVLK [L1M],3.03
7,HTLVFFVQITGQPNILFYASTVLK [L1H],2.7
8,LLLVFFVQITGQPNILFYASTVLK [T2L],3.88
9,LKLVFFVQITGQPNILFYASTVLK [T2K],3.54
10,LDLVFFVQITGQPNILFYASTVLK [T2D],2.45
11,LILVFFVQITGQPNILFYASTVLK [T2I],4.67
12,LWLVFFVQITGQPNILFYASTVLK [T2W],2.96
13,LELVFFVQITGQPNILFYASTVLK [T2E],1.69
14,LYLVFFVQITGQPNILFYASTVLK [T2Y],3.04
15,LGLVFFVQITGQPNILFYASTVLK [T2G],2.15
16,LNLVFFVQITGQPNILFYASTVLK [T2N],3.71
17,LPLVFFVQITGQPNILFYASTVLK [T2P],2.78
18,LCLVFFVQITGQPNILFYASTVLK [T2C],2.24
19,LSLVFFVQITGQPNILFYASTVLK [T2S],3.26
20,LMLVFFVQITGQPNILFYASTVLK [T2M],3.56
21,LALVFFVQITGQPNILFYASTVLK [T2A],2.61
22,LFLVFFVQITGQPNILFYASTVLK [T2F],2.44
